These results are taken from publication PMC5389561 (Nucleic Acids Research, 2016).

Series [1] concerns the target Csm2 with a 6-His tag on the N-terminus (Csm2^H6N) (S. epidermidis RP62a). Briefly: co-purification.
For series [2], the target named is recombinant Csm3 (untagged) (S. epidermidis). Briefly: native gel or EMSA. (In general: A gel shift assay detects complexes by their altered migration in electrophoresis.)
Series [3] deals with the molecule itself. Briefly: native gel or EMSA.
For series [4], the target named is Csm5–Smt3 (Csm5 with an N-terminal His10Smt3 tag) (S. epidermidis). Briefly: pull-down.

On to “Csm3 (wild type, in the Cas10–Csm complex) (natural protein)”, for which the % Csm3 band intensity of the total band intensity of the purified complex in series [1] turned out to be 18%. In series [1], “Csm3 D179A (in the Cas10–Csm complex) (natural protein)” returned a % Csm3 band intensity of the total band intensity of the purified complex of 12%. What is called stoichiometry N is a count of units in the complex or per binding partner. As to “recombinant Csm3 (untagged) (natural protein)”, in series [2], the stoichiometry N stood at 6.

B1: recombinant polynucleotide phosphorylase (PNPase), untagged (enzyme, S. epidermidis RP62a, UniProt Q5HPR7 1-701, looked up)
chain: MSQEKKVFKTEWAGRSLTIETGQLAKQANGAVLVRYGDTVVLSTATASKEPRDGDFFPLTVNYEEKMYAAGKIPGGFKKREGRPGDEATLTARLIDRPIRPLFPKGYRHDVQIMNIVLSADPDCSPEMAAMIGSSMALSVSDIPFQGPIAGVNVGYIDGKYVINPSVADKEISRLDLEVAGHKDAVNMVEAGASEITESEMLEAIFFGHEEIKRLVAFQQEIIDHIQPIKQEFVPVERDEDLVEKVKSLTEDKGLKDTVLTFDKQQRDENLDALKEEVVGHFLDEEDPENETLVKEVYAILNDLIKEEVRRLIADEKIRPDGRKVDEIRPLESEVGLLPRAHGSGLFTRGQTQALSVLTLGALGDYQLIDGLGPEVEKRFMHHYNFPNFSVGETGPVRAPGRREIGHGALGERALRYIIPDTQDFPYTIRIVSEVLESNGSSSQASICGSTLALMDAGVPIKAPVAGIAMGLVTRDDSYTILTDIQGMEDALGDMDFKVAGTKDGITAIQMDIKIDGLTREVIEEALEQARQGRLAIMDHMLHTIEQPREELSAYAPKVVTMSINPDKIRDVIGPGGKKINEIIDETGVKLDIEQDGTIFIGAVDQAMINRAKEIIEDITREAEVGQVYHAKVKRIEKYGAFVELFPGKDALLHISQISQERINKVEDVLKIGDTIEVKITEIDKQGRVNASHKVLEQSKN
With B1, in series [3], the “stoichiometry N” value was 3. The same molecule came in with a PNPase signal intensity as % of total signal in the eluate in series [4] of 5.9%.
